Where “and” joins values, the source holds several entries; their conditions need not be identical. Identical values can stand only once. Like-named read-outs stand apart in the source and are kept apart here.
T1: human TEM1 recombinant protein fused to GST (rhTEM1-GST) (human) (UniProt Q9HCU0)
T1 sequence: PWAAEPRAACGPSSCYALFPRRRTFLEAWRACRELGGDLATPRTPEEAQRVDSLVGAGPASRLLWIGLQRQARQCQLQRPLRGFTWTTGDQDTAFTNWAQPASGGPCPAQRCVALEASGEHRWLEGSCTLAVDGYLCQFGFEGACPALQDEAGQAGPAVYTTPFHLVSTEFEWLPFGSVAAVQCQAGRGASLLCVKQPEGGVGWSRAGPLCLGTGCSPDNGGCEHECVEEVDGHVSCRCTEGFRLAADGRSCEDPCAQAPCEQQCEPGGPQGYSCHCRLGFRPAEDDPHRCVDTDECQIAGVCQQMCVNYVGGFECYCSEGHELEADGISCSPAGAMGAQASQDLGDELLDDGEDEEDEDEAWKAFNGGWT


What was measured:
[1] = molecular target: human TEM1 (endosialin, CD248) on cells (human) (UniProt Q9HCU0); test: live cell-based ELISA, binding to MS1-TEM1 minus binding to MS1 cells; positive control
[2] = molecular target: human TEM1 (endosialin, CD248) on cells (human) (UniProt Q9HCU0); test: live cell-based ELISA, binding to MS1-TEM1 minus binding to MS1 cells, HA-HRP detection
[3] = molecular target: human TEM1 (endosialin, CD248) on cells (human) (UniProt Q9HCU0); test: live cell-based ELISA on MS1-TEM1 cells; reference scFv78
[4] = molecular target: T1, human TEM1 recombinant protein fused to GST (rhTEM1-GST) (human); test: ELISA on plate-coated rhTEM1-GST, KD=2[Ab']t-[Ab]t
[5] = molecular target: T1, human TEM1 recombinant protein fused to GST (rhTEM1-GST) (human); test: ELISA on plate-coated rhTEM1-GST, KD=2[Ab']t-[Ab]t; remark: listed apart in the source

Row | Kd [2] | fold lower KD than scFv78 [3] | Molecule | also measured
1 | – | – | MORAB004 antibody (Morphotek, Inc) | Kd [1]: 0.27 nM
2 | 0.45 nM | 5 fold | Anti-TEM1 scFv78-minibody (scFv) VQPVLTQPPSLSASPGASASLTCTLRSDINVGSYRISWYQQKPGSPPQYLLSYISDSDKQKGSGVPSRFSGSKDASANAGILLISGLQSEDEADYYCMIWHNSAGVFGGGTKLTVLGGGSSRSSSSGGGGSGGGGQVQLQESGGTLVQPGGSLRLSCEASGFTFSNYAMGWVRQTPGKGLEWLSAIRKSGTTTYYADSVKGRFIISRDNSKNTLYLQMNRLRVGDTATYYCATHPIAGYWGQGTLVTVSSASTKGPSVGGGSLIKDKTHTCPPCPAPEL | –
3 | 0.34 nM | 5 fold | Anti-TEM1 scFv78-CH3 (protein) VQPVLTQPPSLSASPGASASLTCTLRSDINVGSYRISWYQQKPGSPPQYLLSYISDSDKQKGSGVPSRFSGSKDASANAGILLISGLQSEDEADYYCMIWHNSAGVFGGGTKLTVLGGGSSRSSSSGGGGSGGGGQVQLQESGGTLVQPGGSLRLSCEASGFTFSNYAMGWVRQTPGKGLEWLSAIRKSGTTTYYADSVKGRFIISRDNSKNTLYLQMNRLRVGDTATYYCATHPIAGYWGQGTLVTVSSASTKGPSVGGGSLIKDKTHTCPPCPSKAKGQPREPQVYTLPPSREEMTKNQVSLTCLVKGFYPSDIAVEWESNGQPENNYKTTPPVLDSDGSFFLYSKLTVDKSRWQQGNVFSCSVMHEALHNHYTQKSLSLSPGK | –
4 | – | – | scFv-78 (scFv) scFv: VQPVLTQPPSLSASPGASASLTCTLRSDINVGSYRISWYQQKPGSPPQYLLSYISDSDKQKGSGVPSRFSGSKDASANAGILLISGLQSEDEADYYCMIWHNSAGVFGGGTKLTVLGGGSSRSSSSGGGGSGGGGQVQLQESGGTLVQPGGSLRLSCEASGFTFSNYAMGWVRQTPGKGLEWLSAIRKSGTTTYYADSVKGRFIISRDNSKNTLYLQMNRLRVGDTATYYCATHPIAGYWGQGTLVTVSSASTKGPS | Kd [4]: 5.8 nM and 4.5 nM and 2.8 nM; Kd [5]: 4.3 nM
5 | 2.08 nM | – | scFv78 (expressed in 293F cells, purified on anti-HA beads) (scFv) scFv: VQPVLTQPPSLSASPGASASLTCTLRSDINVGSYRISWYQQKPGSPPQYLLSYISDSDKQKGSGVPSRFSGSKDASANAGILLISGLQSEDEADYYCMIWHNSAGVFGGGTKLTVLGGGSSRSSSSGGGGSGGGGQVQLQESGGTLVQPGGSLRLSCEASGFTFSNYAMGWVRQTPGKGLEWLSAIRKSGTTTYYADSVKGRFIISRDNSKNTLYLQMNRLRVGDTATYYCATHPIAGYWGQGTLVTVSSASTKGPS | –

Reference: US9783610B2
